Test results: US10668186B2, “Quenched coating” (Original G B.V., priority 2014, dated 2020)
Where two headings read alike, the source gives them in different places. Primed or numbered codes have the meaning given here. Where no end group is shown, it is not given here. code X = (S)-5-azido-2-(Fmoc-amino)pentanoic acid (δ-azido-L-norvaline); Orn(N3) = [N-]=[N+]=NCCC[C@H](N)C(=O)O; IRDye800CW′ = not defined here; IRDyeQC‑1 = quencher label; IRDye800RS = dye label; Pol = MeO-PEG-alkyne

Experiments:
S. aureus = assay: Coated catheter S. aureus challenge, near infrared fluorescence imaging; format: cell-based; settings: for Coating response to S. aureus challenge: coated Foley silicone catheter, 2×10^6 CFU ml^−1 S. aureus, 4 hours, excitation 710 nm, emission 800 nm; for detection of S. aureus (in words): coated catheter, S. aureus challenge
Description: The catheter used was a 14F silicone Foley Catheter which was provided in 6 mm lengths and having a diameter of 4.2 mm. An aqueous slurry of each polymer coating was prepared and each piece of catheter plunged into the slurry mixture. The coated catheters were stored at 20° C. in the dark for 15 minutes prior to repeating the dipping procedure. The process was repeated four times in total. After the final coating, the coated catheters were stored at 35° C. for 48 hours to facilitate drying of the coating. Each coated catheter and one none coated catheter as control, were incubated in the presence of 2×10^6 colony-forming units (CFU) ml^−1 of S. auereus for 4 hours. […] The results obtained from the IVIS Spectrum and IVIS Lumina II were analyzed with Living Image 4.2. (Caliper L S, Hopkinton Mass., USA). Optimal detection limits were set to the lowest signal at which positive signal was effortlessly discriminated from negative controls. Signal intensity was determined by drawing regions of interests (ROI's) and measuring average counts in these regions. The signal was corrected for background by subtracting the background signal from the signal of interest, referred to in the text as net counts. A strong near infrared signal was, attributed to the first fluorescent agent.

V8 protease = V8 protease (Staphylococcus aureus, UniProt P0C1U8); settings: surface bound, Odyssey CLX, exciting at 800 nm
Description: The resulting solution (50 μL) was pipetted onto the glass slide, and the slide was kept in a humidified environment for 1H. The droplet was washed off by rinsing 3× with 1 mL DMSO:H2O 80/20; thereafter, the slide was placed in a washing solution of DMSO:H2O 80/20 and was gently agitated for 1 minute. The washing solution was rinsed off with water (5×1 mL) and the slide was dried by a flow of nitrogen.
Li-Cor Odyssey CLX equipment was used on site at Westburg (Leusden, N L; Timo Kreike, Moniek Kors). All Odyssey CLX measurements were taken by exciting at 800 nm.

[1] = target: V8 protease (Endoproteinase Glu-C from Staphylococcus aureus V8) (Staphylococcus aureus, UniProt P0C1U8); settings: in solution, excitation 720 nm
Description: Bacterial protease was obtained from Sigma-Aldrich (Endoproteinase Glu-C from Staphylococcus aureus V8, P2922 SIGMA), also named ‘protease V8’ or ‘V8’ in this document.
The cleavage of peptide 1 in the presence of V8 protease and GranzymB protease was monitored in solution by luminescence spectroscopy. Photo-luminescence spectra were measured on a Perkin-Elmer Luminescence Spectrometer LS50 B. Spectra were recorded from 250 to 900 nm, using an excitation wavelength of 720 nm and applying a slit width of 15 nm.
The digestion in solution was performed in a glass vial. 100 μL of stock solution of peptide 1 (10 mg/mL) was diluted with 625 μL H2O and 250 μL 100 mM phosphate buffer solution (pH=7.8). A sample of 10 μL was taken at t=0. Then, 50 μL of V8 or Granzyme B protease stock solution (25 units, ±25 μg) was added, the mixture shaken and was kept at room temperature. […] At various time points (30 s, 2, 5, 10, 15, 20, 25, 30, 40, 50, 60, 90, 120, 150 and 180 min., and at 18H) a 10 μL incubate sample was taken and was diluted with 3 mL of water. The prepared diluted samples were measured by luminescence spectroscopy, so as to monitor the digestive cleavage of peptide 1. As blanks, cuvettes with water and the same amount of DMSO as the sample solution were used.

[2] = target: T1, Granzyme B, Human, Recombinant (Homo sapiens, UniProt P10144); assay: Digestion of peptide 1 in solution monitored by luminescence spectroscopy (Granzyme B); format: biochemical; settings: presence of Granzyme B
T1 construct: purchased MerckMillepore 368043; host or cells: E. coli
Description: Human recombinant protease was obtained from MerckMillepore (368043 Granzyme B, Human, Recombinant, E. coli).

V8 protease (Endoproteinase Glu-C from Staphylococcus aureus V8), sequence (P0C1U8 69-336): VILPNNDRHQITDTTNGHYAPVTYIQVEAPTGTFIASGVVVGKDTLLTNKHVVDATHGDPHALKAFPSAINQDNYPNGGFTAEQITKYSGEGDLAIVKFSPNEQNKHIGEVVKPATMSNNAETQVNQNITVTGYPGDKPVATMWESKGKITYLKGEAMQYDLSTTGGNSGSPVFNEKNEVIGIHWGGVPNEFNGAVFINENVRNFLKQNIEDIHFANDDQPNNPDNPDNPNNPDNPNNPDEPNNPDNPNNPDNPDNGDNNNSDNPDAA
T1 sequence (P10144 21-247): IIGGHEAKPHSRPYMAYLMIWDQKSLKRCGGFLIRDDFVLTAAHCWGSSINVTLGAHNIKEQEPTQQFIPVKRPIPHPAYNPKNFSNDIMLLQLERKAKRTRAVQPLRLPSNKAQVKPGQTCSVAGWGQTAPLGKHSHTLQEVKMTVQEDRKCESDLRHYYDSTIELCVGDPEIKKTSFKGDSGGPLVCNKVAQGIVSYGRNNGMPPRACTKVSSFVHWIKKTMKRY
V8 protease, sequence (P0C1U8 69-336): as the sequence (P0C1U8 69-336) above

Substance | Coating response to S. aureus challenge (S. aureus) | detection of S. aureus (in words) (S. aureus) | intensity (V8 protease; before V8 protease) | intensity (V8 protease; in the presence of V8 protease) [units] | background fluorescence ([1]; absence of V8 protease) | fluorescence intensity ([1]; after 30 s of adding V8 protease) [AU] | fluorescence intensity ([1]; within 6 minutes of adding V8 protease) [AU] | cleavage by Granzyme B [2] | background fluorescence ([2]; maintained throughout the experiment) [AU]
(IRDye800RS)-KG-(Pol)-X-LLEFRIVAK(IRDye800RS) ({IRDye800RS-Lys-Gly-Pol-code X}-LLEFRIVAK(IRDye800RS); also: MeO-PEG) [Example 5.3] | + | only a weak signal is detected |  |  |  |  |  |  | 
Ac-(IRDye800CW)CG-(Pol)-X-LLEFRIVAK(IRDyeQC-1) ({Ac-Cys(IRDye800CW)-Gly-Pol-code X}-LLEFRIVAK(IRDyeQC‑1); also: MeO-PEG) [Example 5.4] | ++ | very good detection |  |  |  |  |  |  | 
Ac-X-[K(IRDye800RS)]-GLLEFRIVAK(IRDye800RS)-amide ({Ac-Orn(N3)-K(IRDye800RS)}-GLLEFRIVAK(IRDye800RS)-NH2) [Peptide 1] |  |  | circa 6000 units | 25000 | around 1 AU | 4 | 6 | not cut | 1
G-(Pol)-X-LLEFRIVAC-IRDye800CW (LLEFRIVAC-{IRDye800CW′}; not fully specified (residue 9, N-terminus); also: MeO-PEG) [Example 5.2, comparative, no non-fluorescent agent, reference compound] | − | only a small change in intensity in emitted light is detected |  |  |  |  |  |  | 
